Measured values as given in US20140087995A1 (published 2014).
Numbered stars: 1 amine (or outer) side, 2 acyl side, 3 side chain; on linkers, the order of the positions; unused ones are H or OH. Bridge positions count the residues as written; N and C are the ends. Side chains are listed from the residue outwards. Ends that are not written are not given here. * marks the point of attachment. C20 diacid = O=C(O)CCCCCCCCCCCCCCCCCCC(=O)*; C18 diacid = O=C(O)CCCCCCCCCCCCCCCCC(=O)*; γGlu = O=C(O)[C@H](CCC(=O)[*:2])N[*:1]

T1: human amylin receptor (human, UniProt P30988 25-474; O60896 24-148, limits assumed)
T1 construct: whole, on cells; Calcitonin receptor plus RAMP-3 gives the amylin 3(a) receptor; membranes of Amylin 3(a)/CRE-luc cells were used; also called hAmylin-R; hAmylinR
T1 sequence (looked up) 1: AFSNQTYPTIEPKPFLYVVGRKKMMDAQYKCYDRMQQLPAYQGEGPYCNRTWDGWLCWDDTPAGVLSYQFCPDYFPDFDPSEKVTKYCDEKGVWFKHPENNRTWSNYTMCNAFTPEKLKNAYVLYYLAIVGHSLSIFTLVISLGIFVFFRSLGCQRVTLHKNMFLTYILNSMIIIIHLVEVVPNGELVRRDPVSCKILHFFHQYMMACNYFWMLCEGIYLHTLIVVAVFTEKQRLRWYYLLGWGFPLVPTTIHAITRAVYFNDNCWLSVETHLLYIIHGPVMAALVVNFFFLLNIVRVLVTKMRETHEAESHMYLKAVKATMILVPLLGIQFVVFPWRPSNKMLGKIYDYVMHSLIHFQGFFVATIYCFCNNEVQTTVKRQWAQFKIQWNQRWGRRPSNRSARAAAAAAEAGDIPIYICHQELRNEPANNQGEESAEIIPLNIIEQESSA
T1 sequence (looked up) 2: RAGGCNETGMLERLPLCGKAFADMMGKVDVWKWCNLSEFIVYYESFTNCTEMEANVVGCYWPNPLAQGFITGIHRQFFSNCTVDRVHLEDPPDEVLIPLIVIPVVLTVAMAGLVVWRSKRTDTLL


target: T1, human amylin receptor; assay: SPA competition binding, displacement of 125I-rat amylin from membranes with human amylin 3(a) receptor (Assay V)
Summary of the method: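 SPA beads + BHK amylin 3(a)/CRE-luc membranes, 35 ng/μL final; buffer 50 mM Hepes pH 7.4, 1 mM CaCl2, 5 mM MgCl₂, 0.1% OA, 0.02% Tween20. 120 min, 25° C, shaken; scintillation count. IC₅₀ by one-site binding competition fit, taken as receptor affinity.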

Row | IC50 | Binder
1 | 0.79 nM | K([γGlu-C20 diacid])CNTATCATQRLANFLRHSSPNFGAIPSSTNVGRNTY-NH2 (disulfide 2-7; N-terminus assumed; SMILES CC[C@H](C)[C@H](NC(=O)[C@H](C)NC(=O)CNC(=O)[C@H](Cc1ccccc1)NC(=O)[C@H](CC(N)=O)NC(=O)[C@@H]1CCCN1C(=O)[C@H](CO)NC(=O)[C@H](CO)NC(=O)[C@H](Cc1c[nH]cn1)NC(=O)[C@H](CCCNC(=N)N)NC(=O)[C@H](CC(C)C)NC(=O)[C@H](Cc1ccccc1)NC(=O)[C@H](CC(N)=O)NC(=O)[C@H](C)NC(=O)[C@H](CC(C)C)NC(=O)[C@H](CCCNC(=N)N)NC(=O)[C@H](CCC(N)=O)NC(=O)[C@@H](NC(=O)[C@H](C)NC(=O)[C@@H]1CSSC[C@H](NC(=O)[C@@H](N)CCCCNC(=O)CC[C@H](NC(=O)CCCCCCCCCCCCCCCCCCC(=O)O)C(=O)O)C(=O)N[C@@H](CC(N)=O)C(=O)N[C@@H]([C@@H](C)O)C(=O)N[C@@H](C)C(=O)N[C@@H]([C@@H](C)O)C(=O)N1)[C@@H](C)O)C(=O)N1CCC[C@H]1C(=O)N[C@@H](CO)C(=O)N[C@@H](CO)C(=O)N[C@H](C(=O)N[C@@H](CC(N)=O)C(=O)N[C@H](C(=O)NCC(=O)N[C@@H](CCCNC(=N)N)C(=O)N[C@@H](CC(N)=O)C(=O)N[C@H](C(=O)N[C@@H](Cc1ccc(O)cc1)C(N)=O)[C@@H](C)O)C(C)C)[C@@H](C)O, also called 17R, 21P, 27P, 34R) [N^ε1-[(4S)-4-carboxy-4-(19-carboxynonadecanoylamino)butanoyl]-[Arg17,Pro21,Pro27,Arg34]-h-amylin]
2 | 0.649 nM | K([γGlu-C20 diacid])CNTATCATQRLARFLRHSSPNFGAIPSSTNVGPNTY-NH2 (disulfide 2-7; N-terminus assumed; SMILES CC[C@H](C)[C@H](NC(=O)[C@H](C)NC(=O)CNC(=O)[C@H](Cc1ccccc1)NC(=O)[C@H](CC(N)=O)NC(=O)[C@@H]1CCCN1C(=O)[C@H](CO)NC(=O)[C@H](CO)NC(=O)[C@H](Cc1c[nH]cn1)NC(=O)[C@H](CCCNC(=N)N)NC(=O)[C@H](CC(C)C)NC(=O)[C@H](Cc1ccccc1)NC(=O)[C@H](CCCNC(=N)N)NC(=O)[C@H](C)NC(=O)[C@H](CC(C)C)NC(=O)[C@H](CCCNC(=N)N)NC(=O)[C@H](CCC(N)=O)NC(=O)[C@@H](NC(=O)[C@H](C)NC(=O)[C@@H]1CSSC[C@H](NC(=O)[C@@H](N)CCCCNC(=O)CC[C@H](NC(=O)CCCCCCCCCCCCCCCCCCC(=O)O)C(=O)O)C(=O)N[C@@H](CC(N)=O)C(=O)N[C@@H]([C@@H](C)O)C(=O)N[C@@H](C)C(=O)N[C@@H]([C@@H](C)O)C(=O)N1)[C@@H](C)O)C(=O)N1CCC[C@H]1C(=O)N[C@@H](CO)C(=O)N[C@@H](CO)C(=O)N[C@H](C(=O)N[C@@H](CC(N)=O)C(=O)N[C@H](C(=O)NCC(=O)N1CCC[C@H]1C(=O)N[C@@H](CC(N)=O)C(=O)N[C@H](C(=O)N[C@@H](Cc1ccc(O)cc1)C(N)=O)[C@@H](C)O)C(C)C)[C@@H](C)O, also called 14R, 17R, 21P, 27P, 34P)
3 | 0.428 nM | K([γGlu-C20 diacid])CNTATCATQRLANFLRHSSPNFGAIPSSTNVGHNTY-NH2 (disulfide 2-7; N-terminus assumed; SMILES CC[C@H](C)[C@H](NC(=O)[C@H](C)NC(=O)CNC(=O)[C@H](Cc1ccccc1)NC(=O)[C@H](CC(N)=O)NC(=O)[C@@H]1CCCN1C(=O)[C@H](CO)NC(=O)[C@H](CO)NC(=O)[C@H](Cc1c[nH]cn1)NC(=O)[C@H](CCCNC(=N)N)NC(=O)[C@H](CC(C)C)NC(=O)[C@H](Cc1ccccc1)NC(=O)[C@H](CC(N)=O)NC(=O)[C@H](C)NC(=O)[C@H](CC(C)C)NC(=O)[C@H](CCCNC(=N)N)NC(=O)[C@H](CCC(N)=O)NC(=O)[C@@H](NC(=O)[C@H](C)NC(=O)[C@@H]1CSSC[C@H](NC(=O)[C@@H](N)CCCCNC(=O)CC[C@H](NC(=O)CCCCCCCCCCCCCCCCCCC(=O)O)C(=O)O)C(=O)N[C@@H](CC(N)=O)C(=O)N[C@@H]([C@@H](C)O)C(=O)N[C@@H](C)C(=O)N[C@@H]([C@@H](C)O)C(=O)N1)[C@@H](C)O)C(=O)N1CCC[C@H]1C(=O)N[C@@H](CO)C(=O)N[C@@H](CO)C(=O)N[C@H](C(=O)N[C@@H](CC(N)=O)C(=O)N[C@H](C(=O)NCC(=O)N[C@@H](Cc1c[nH]cn1)C(=O)N[C@@H](CC(N)=O)C(=O)N[C@H](C(=O)N[C@@H](Cc1ccc(O)cc1)C(N)=O)[C@@H](C)O)C(C)C)[C@@H](C)O, also called 17R, 21P, 27P, 34H) [N^ε1-[(4S)-4-carboxy-4-(19-carboxynonadecanoylamino)butanoyl]-[Arg17,Pro21,Pro27,His34]-h-amylin]

More lines, now with the values behind:

Row | Binder | IC50
4 | K([γGlu-C18 diacid])CNTATCATQRLANFLRHSSPNFGAIPSSTNVGHNTY-NH2 (disulfide 2-7; N-terminus assumed; SMILES CC[C@H](C)[C@H](NC(=O)[C@H](C)NC(=O)CNC(=O)[C@H](Cc1ccccc1)NC(=O)[C@H](CC(N)=O)NC(=O)[C@@H]1CCCN1C(=O)[C@H](CO)NC(=O)[C@H](CO)NC(=O)[C@H](Cc1c[nH]cn1)NC(=O)[C@H](CCCNC(=N)N)NC(=O)[C@H](CC(C)C)NC(=O)[C@H](Cc1ccccc1)NC(=O)[C@H](CC(N)=O)NC(=O)[C@H](C)NC(=O)[C@H](CC(C)C)NC(=O)[C@H](CCCNC(=N)N)NC(=O)[C@H](CCC(N)=O)NC(=O)[C@@H](NC(=O)[C@H](C)NC(=O)[C@@H]1CSSC[C@H](NC(=O)[C@@H](N)CCCCNC(=O)CC[C@H](NC(=O)CCCCCCCCCCCCCCCCC(=O)O)C(=O)O)C(=O)N[C@@H](CC(N)=O)C(=O)N[C@@H]([C@@H](C)O)C(=O)N[C@@H](C)C(=O)N[C@@H]([C@@H](C)O)C(=O)N1)[C@@H](C)O)C(=O)N1CCC[C@H]1C(=O)N[C@@H](CO)C(=O)N[C@@H](CO)C(=O)N[C@H](C(=O)N[C@@H](CC(N)=O)C(=O)N[C@H](C(=O)NCC(=O)N[C@@H](Cc1c[nH]cn1)C(=O)N[C@@H](CC(N)=O)C(=O)N[C@H](C(=O)N[C@@H](Cc1ccc(O)cc1)C(N)=O)[C@@H](C)O)C(C)C)[C@@H](C)O, also called 17R, 21P, 27P, 34H) [N^ε1-[(4S)-4-carboxy-4-(17-carboxyheptadecanoylamino)butanoyl]-[Arg17,Pro21,Pro27,His34]-h-amylin] | 0.382 nM
5 | K([γGlu-C20 diacid])CNTATCATQRLAAFLRHSSPNFGAIPSSTNVGHNTY-NH2 (disulfide 2-7; N-terminus assumed; SMILES CC[C@H](C)[C@H](NC(=O)[C@H](C)NC(=O)CNC(=O)[C@H](Cc1ccccc1)NC(=O)[C@H](CC(N)=O)NC(=O)[C@@H]1CCCN1C(=O)[C@H](CO)NC(=O)[C@H](CO)NC(=O)[C@H](Cc1c[nH]cn1)NC(=O)[C@H](CCCNC(=N)N)NC(=O)[C@H](CC(C)C)NC(=O)[C@H](Cc1ccccc1)NC(=O)[C@H](C)NC(=O)[C@H](C)NC(=O)[C@H](CC(C)C)NC(=O)[C@H](CCCNC(=N)N)NC(=O)[C@H](CCC(N)=O)NC(=O)[C@@H](NC(=O)[C@H](C)NC(=O)[C@@H]1CSSC[C@H](NC(=O)[C@@H](N)CCCCNC(=O)CC[C@H](NC(=O)CCCCCCCCCCCCCCCCCCC(=O)O)C(=O)O)C(=O)N[C@@H](CC(N)=O)C(=O)N[C@@H]([C@@H](C)O)C(=O)N[C@@H](C)C(=O)N[C@@H]([C@@H](C)O)C(=O)N1)[C@@H](C)O)C(=O)N1CCC[C@H]1C(=O)N[C@@H](CO)C(=O)N[C@@H](CO)C(=O)N[C@H](C(=O)N[C@@H](CC(N)=O)C(=O)N[C@H](C(=O)NCC(=O)N[C@@H](Cc1c[nH]cn1)C(=O)N[C@@H](CC(N)=O)C(=O)N[C@H](C(=O)N[C@@H](Cc1ccc(O)cc1)C(N)=O)[C@@H](C)O)C(C)C)[C@@H](C)O, also called 14A, 17R, 21P, 27P, 34H) | 0.176 nM
6 | K([γGlu-C20 diacid])CNTATCATQRLAAFLRHSSPNFGAIPSSTNVGPNTY-NH2 (disulfide 2-7; N-terminus assumed; SMILES CC[C@H](C)[C@H](NC(=O)[C@H](C)NC(=O)CNC(=O)[C@H](Cc1ccccc1)NC(=O)[C@H](CC(N)=O)NC(=O)[C@@H]1CCCN1C(=O)[C@H](CO)NC(=O)[C@H](CO)NC(=O)[C@H](Cc1c[nH]cn1)NC(=O)[C@H](CCCNC(=N)N)NC(=O)[C@H](CC(C)C)NC(=O)[C@H](Cc1ccccc1)NC(=O)[C@H](C)NC(=O)[C@H](C)NC(=O)[C@H](CC(C)C)NC(=O)[C@H](CCCNC(=N)N)NC(=O)[C@H](CCC(N)=O)NC(=O)[C@@H](NC(=O)[C@H](C)NC(=O)[C@@H]1CSSC[C@H](NC(=O)[C@@H](N)CCCCNC(=O)CC[C@H](NC(=O)CCCCCCCCCCCCCCCCCCC(=O)O)C(=O)O)C(=O)N[C@@H](CC(N)=O)C(=O)N[C@@H]([C@@H](C)O)C(=O)N[C@@H](C)C(=O)N[C@@H]([C@@H](C)O)C(=O)N1)[C@@H](C)O)C(=O)N1CCC[C@H]1C(=O)N[C@@H](CO)C(=O)N[C@@H](CO)C(=O)N[C@H](C(=O)N[C@@H](CC(N)=O)C(=O)N[C@H](C(=O)NCC(=O)N1CCC[C@H]1C(=O)N[C@@H](CC(N)=O)C(=O)N[C@H](C(=O)N[C@@H](Cc1ccc(O)cc1)C(N)=O)[C@@H](C)O)C(C)C)[C@@H](C)O, also called 14A, 17R, 21P, 27P, 34P) | 0.148 nM
